# Residue numbers refer to the chain shown, from its start. In names and notes the source's numbering stands.
# B1: Syn BVR (Synechocystis sp. PCC 6803 substr. Kazusa; R246A) (protein)
# chain: MSENFAVATPVRVGIVGTGYAAQRRAEVFRGDRRSQLVSFWGNSEANTAKFADTFGVRPQQSWQALINDPEIDLVLIATINQLHGAIAEAALQAGKHVVLEYPLALTYAMGKKLQQLAREKGKLLHVEHIELLGGVHQAIRQNLGKIGEVFYARYSTIMGQNPAPQRWTYHHQQFGFPLVAALSRISRFTDLFGTVQQVDAQCRFWDQPNPEYFRACLATAYLQFNNGLKAEVIYGKGEVFHQNEAIFTLHGDRGTLIFVGETGRLIQGQTETEITVGSRRGLFRQDTEAVLDYLTTGKPLYVDLEASLYALEVADLCAQACGYKVEN
# notes: full length, 328 residues; N-terminal His6 tag (pET15b), E. coli C41(DE3); tag cut with thrombin for crystals
# B2: Syn BVR (Synechocystis sp. PCC 6803 substr. Kazusa; R185A) (protein)
# chain: B1 chain with R185A, A246R
# notes: as for B1
# B3: Syn BVR (Synechocystis sp. PCC 6803 substr. Kazusa; Y102F) (protein)
# chain: B1 chain with Y102F, A246R
# notes: as for B1
# B4: Syn BVR (Synechocystis sp. PCC 6803 substr. Kazusa) (protein)
# chain: B1 chain with A246R
# notes: as for B1
# B5: Syn BVR (Synechocystis sp. PCC 6803 substr. Kazusa; T169A) (protein)
# chain: B1 chain with T169A, A246R
# notes: as for B1
# B6: Syn BVR (Synechocystis sp. PCC 6803 substr. Kazusa; R185K) (protein)
# chain: B1 chain with R185K, A246R
# notes: as for B1
# B7: human BVR (Homo sapiens) (protein)
# chain: MNAEPERKFGVVVVGVGRAGSVRMRDLRNPHPSSAFLNLIGFVSRRELGSIDGVQQISLEDALSSQEVEVAYICSESSSHEDYIRQFLNAGKHVLVEYPMTLSLAAAQELWELAEQKGKVLHEEHVELLMEEFAFLKKEVVGKDLLKGSLLFTAGPLEEERFGFPAFSGISRLTWLVSLFGELSLVSATLEERKEDQYMKMTVCLETEKKSPLSWIEEKGPGLKRNRYLSFHFKSGSLENVPNVGVNKNIFLKDQNIFVQKLLGQFSEKELAAEKKRILHCLGLAEEIQKYCCSRK
# notes: C-terminal His tag (pET21a(+)), codon-optimized synthetic gene, E. coli BL21(DE3)
# B8: human BVR (Homo sapiens; R172A) (protein)
# chain: B7 chain with R172A
# notes: as for B7
# B9: human BVR (Homo sapiens; Y98F) (protein)
# chain: B7 chain with Y98F
# notes: as for B7
# B10: rat BVR (Rattus norvegicus) (protein)
# chain: MDAEPKRKFGVVVVGVGRAGSVRLRDLKDPRSAAFLNLIGFVSRRELGSLDEVRQISLEDALRSQEIDVAYICSESSSHEDYIRQFLQAGKHVLVEYPMTLSFAAAQELWELAAQKGRVLHEEHVELLMEEFEFLRREVLGKELLKGSLRFTASPLEEERFGFPAFSGISRLTWLVSLFGELSLISATLEERKEDQYMKMTVQLETQNKGLLSWIEEKGPGLKRNRYVNFQFTSGSLEEVPSVGVNKNIFLKDQDIFVQKLLDQVSAEDLAAEKKRIMHCLGLASDIQKLCHQKK
# notes: C-terminal His tag (pET21a-rat bvr), E. coli BL21(DE3)
# B11: rat BVR (Rattus norvegicus; R171A) (protein)
# chain: B10 chain with R171A
# notes: as for B10
# B12: rat BVR (Rattus norvegicus; R171E) (protein)
# chain: B10 chain with R171E
# notes: as for B10
# B13: rat BVR (Rattus norvegicus; Y97F) (protein)
# chain: B10 chain with Y97F
# notes: as for B10
# Legend:
# Syn BVR [1] = target: T1, Syn BVR (Synechocystis sp. PCC 6803, UniProt P72782); experiment: X-ray crystal structure, soaked crystal, […] Å; format: binding; details: 10 mM NADP+ soak; no biliverdin; cleft between the two domains
# T1 construct: gene bvdR; full length, 328 residues; N-terminal His6 tag (pET15b), E. coli C41(DE3); tag cut with thrombin for crystals
# Syn BVR [2] = target: T1, Syn BVR; experiment: reduction of biliverdin in crystal and solution; format: biochemical; details: biliverdin as co-substrate; crystallization solution
# human BVR = target: T2, human BVR (Homo sapiens, UniProt P53004); experiment: optical titration, difference absorption; format: binding; details: 5 mM NADP+, 200 mM Tris-HCl pH 8.75, 28 °C; two biliverdins bound
# T2 construct: gene BLVRA; C-terminal His tag (pET21a(+)), codon-optimized synthetic gene, E. coli BL21(DE3)
# T2 sequence (P53004 1-296 limits assumed): B7 chain
# Syn BVR [3] = target: T1, Syn BVR; experiment: X-ray crystal structure, co-crystal, […] Å; also optical titration; format: binding; details: ternary complex with NADP+; two stacked biliverdins (proximal and distal) in active site
# rat BVR = target: T3, rat BVR (Rattus norvegicus, UniProt P46844); experiment: optical titration, difference absorption; format: binding; details: 5 mM NADP+, 200 mM Tris-HCl pH 8.75, 28 °C; two biliverdins bound
# T3 construct: gene Blvra; C-terminal His tag (pET21a-rat bvr), E. coli BL21(DE3)
# T3 sequence (P46844 1-295 limits assumed): B10 chain
# [4] = substrate: C=CC1=C(C)/C(=C/c2[nH]c(/C=C3N=C(/C=C4\NC(=O)C(C)=C4C=C)C(C)=C\3CCC(=O)O)c(CCC(=O)O)c2C)NC1=O; experiment: steady-state kinetics, A450 bilirubin formation; format: biochemical, Synechocystis sp. PCC 6803; details: 100 μM NADPH, 100 mM citrate pH 5.75
# Description: steady-state kinetics, A450 bilirubin formation on Syn BVR
# [5] = substrate: C=CC1=C(C)/C(=C/c2[nH]c(/C=C3N=C(/C=C4\NC(=O)C(C)=C4C=C)C(C)=C\3CCC(=O)O)c(CCC(=O)O)c2C)NC1=O; experiment: steady-state kinetics, A450 bilirubin formation; format: biochemical, Homo sapiens; details: 100 μM NADPH, 100 mM Tris-HCl pH 8.75
# Description: steady-state kinetics, A450 bilirubin formation on human BVR
# [6] = substrate: C=CC1=C(C)/C(=C/c2[nH]c(/C=C3N=C(/C=C4\NC(=O)C(C)=C4C=C)C(C)=C\3CCC(=O)O)c(CCC(=O)O)c2C)NC1=O; experiment: steady-state kinetics, A450 bilirubin formation; format: biochemical, Rattus norvegicus; details: 100 μM NADPH, 100 mM Tris-HCl pH 8.75
# Description: steady-state kinetics, A450 bilirubin formation on rat BVR
# T1 sequence (P72782 entry or part of it): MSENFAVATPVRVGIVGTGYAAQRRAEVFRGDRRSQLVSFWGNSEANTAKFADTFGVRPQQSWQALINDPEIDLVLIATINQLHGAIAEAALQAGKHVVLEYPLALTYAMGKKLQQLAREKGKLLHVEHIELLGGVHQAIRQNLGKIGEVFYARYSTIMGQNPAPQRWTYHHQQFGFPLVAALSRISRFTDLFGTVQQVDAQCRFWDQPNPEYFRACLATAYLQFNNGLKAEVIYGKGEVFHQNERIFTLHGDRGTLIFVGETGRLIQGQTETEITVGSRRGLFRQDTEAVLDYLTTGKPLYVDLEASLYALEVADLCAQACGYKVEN
molecule,measurement,setting,value
NC(=O)c1ccc[n+]([C@@H]2O[C@H](COP(=O)(O)OP(=O)(O)OC[C@H]3O[C@@H](n4cnc5c(N)ncnc54)[C@H](OP(=O)(O)O)[C@@H]3O)[C@@H](O)[C@H]2O)c1 [NADP^+],"X-ray crystal structure, soaked crystal, 2.7 Å",Syn BVR [1],NADP^+ binds in the cleft between the two domains
NC(=O)C1=CN([C@@H]2O[C@H](COP(=O)(O)OP(=O)(O)OC[C@H]3O[C@@H](n4cnc5c(N)ncnc54)[C@H](OP(=O)(O)O)[C@@H]3O)[C@@H](O)[C@H]2O)C=CC1 [NADPH],reduction of biliverdin in crystal and solution,Syn BVR [2],BV could be rapidly (as in the mixing time) reduced to BR by addition of NADPH
C=CC1=C(C)/C(=C/c2[nH]c(/C=C3N=C(/C=C4\NC(=O)C(C)=C4C=C)C(C)=C\3CCC(=O)O)c(CCC(=O)O)c2C)NC1=O [biliverdin IXα],"optical titration, difference absorption",human BVR,two BV molecules bound in both human and rat BVRs
same,"X-ray crystal structure, co-crystal, 2.6 Å; also optical titration",Syn BVR [3],two BV molecules are bound to the catalytic cleft between the two domains
same,"optical titration, difference absorption",rat BVR,two BV molecules bound in both human and rat BVRs
B1,Km,[4],5.1 ± 0.8 µM
same,kcat,[4],11 ± 0.6 s⁻¹
same,kcat/Km,[4],2.2e+06 M⁻¹ s⁻¹
B2,Km,[4],6.9 ± 0.6 µM
same,kcat,[4],0.7 ± 0.02 s⁻¹
same,kcat/Km,[4],100000 M⁻¹ s⁻¹
B3,Km,[4],4.0 ± 0.3 µM
same,kcat,[4],2.7 ± 0.07 s⁻¹
same,kcat/Km,[4],700000 M⁻¹ s⁻¹
B4,Km,[4],1.8 ± 0.3 µM
same,kcat,[4],7.1 ± 0.2 s⁻¹
same,kcat/Km,[4],3.9e+06 M⁻¹ s⁻¹
B5,Km,[4],3.4 ± 0.5 µM
same,kcat,[4],13.1 ± 0.5 s⁻¹
same,kcat/Km,[4],3.9e+06 M⁻¹ s⁻¹
B6,Km,[4],12.6 ± 1.5 µM
same,kcat,[4],0.9 ± 0.05 s⁻¹
same,kcat/Km,[4],70000 M⁻¹ s⁻¹
B7,Km,[5],20.7 ± 10.1 µM
same,kcat,[5],94.8 ± 31.4 s⁻¹
same,kcat/Km,[5],4.6e+06 M⁻¹ s⁻¹
B8,Km,[5],87.7 ± 35.7 µM
same,kcat,[5],17.9 ± 6.3 s⁻¹
same,kcat/Km,[5],200000 M⁻¹ s⁻¹
B9,Km,[5],3.8 ± 0.3 µM
same,kcat,[5],16.8 ± 0.5 s⁻¹
same,kcat/Km,[5],4.4e+06 M⁻¹ s⁻¹
B10,Km,[6],4.6 ± 1.1 µM
same,kcat,[6],69.3 ± 8.5 s⁻¹
same,kcat/Km,[6],1.51e+07 M⁻¹ s⁻¹
B11,Km,[6],24.4 ± 1.5 µM
same,kcat,[6],6 ± 0.2 s⁻¹
same,kcat/Km,[6],200000 M⁻¹ s⁻¹
B12,Km,[6],45.7 ± 15.4 µM
same,kcat,[6],0.7 ± 0.2 s⁻¹
same,kcat/Km,[6],20000 M⁻¹ s⁻¹
B13,Km,[6],11.7 ± 1.0 µM
same,kcat,[6],13.6 ± 0.6 s⁻¹
same,kcat/Km,[6],1.2e+06 M⁻¹ s⁻¹

# — PMC5309722, “A substrate-bound structure of cyanobacterial biliverdin reductase identifies stacked substrates as critical for activity” (Nature Communications, 2017)
